In FireProtDB (doi:10.1021/bi00197a024):
“And” between values parts separate entries of the source, which are not always exact repeats. Equal entries are not always repeated.

Conditions: Saccharomyces cerevisiae (strain ATCC 204508 / S288c), Thermal, DSC, reversible: yes, whole UniProt chain shown

B1: Cytochrome c mitochondrial import factor CYC2 wild type, P38909 (protein)
chain: MLWKNYVLSSSRITRRLHKSPRKSSFSKNFFITGCLLTVGAVSSYLTYRYTSERENKHELSPSYFVKYKISHKRDIDSSHFLLEVTPLFKQKVNIWSLMTAENLWSVEIKQPEVMVVRNYTPLPLKFNPASKEIEILKDGDNADGKLSFYIKKYENGEVARWLHHLPKGHIIEIRGPFIDYEFPHLPNELKRSRDCLYMDNRNERGNNVRENSQFIYQPYDIMMFTAGTGIVTALQLLLTESPFRGTIKLFHTDKNIKQLGPLYPILLRLQASNRVQLKIFETDRQTKQDVLKSIQKSITKPYPYKGLLPFSNVNNKNIMPVLALVCGPESYISSISGRKYDLNQGPVGGLLSKEGWNSDNVYKLS
- Tm (pH 3.5, Sodium acetate 0.1 M): 39 °C
- unfolding enthalpy (calorimetric) (pH 3.5, Sodium acetate 0.1 M): 53.7 kcal/mol
- unfolding enthalpy (van 't Hoff) (pH 3.5, Sodium acetate 0.1 M): 67.7 kcal/mol
- Tm (pH 4, Sodium acetate 0.1 M): 43.7 °C
- unfolding enthalpy (calorimetric) (pH 4, Sodium acetate 0.1 M): 62.7 kcal/mol
- unfolding enthalpy (van 't Hoff) (pH 4, Sodium acetate 0.1 M): 75.9 kcal/mol
- Tm (pH 5, Sodium phosphate 0.1 M): 54.9 °C and 53.1 °C
- unfolding enthalpy (calorimetric) (pH 5, Sodium phosphate 0.1 M): 73.4 kcal/mol and 71.2 kcal/mol
- unfolding enthalpy (van 't Hoff) (pH 5, Sodium phosphate 0.1 M): 93.2 kcal/mol and 92.9 kcal/mol
- Tm (pH 6, Sodium phosphate 0.1 M): 54.5 °C
- unfolding enthalpy (calorimetric) (pH 6, Sodium phosphate 0.1 M): 67.4 kcal/mol
- unfolding enthalpy (van 't Hoff) (pH 6, Sodium phosphate 0.1 M): 91.7 kcal/mol
